Percent reduction of co-precipitated HRD1 against WT SEL1L data for 1 substance are collected here from publication doi:10.1101/2025.08.01.668162.

Like-named read-outs stand apart in the source and are kept apart here.

The target of test [1] is SEL1L S658P (mouse knock-in) (mouse (endogenous in MEFs and liver)) (UniProt Q9Z2G6). As to the kind of experiment: co-IP.
For test [2] the target is unchanged. As to the kind of experiment: co-IP. This is another data set of the same source.

Sequence of UniProt Q9Z2G6 (Q9Z2G6 22-790, stated change not applied): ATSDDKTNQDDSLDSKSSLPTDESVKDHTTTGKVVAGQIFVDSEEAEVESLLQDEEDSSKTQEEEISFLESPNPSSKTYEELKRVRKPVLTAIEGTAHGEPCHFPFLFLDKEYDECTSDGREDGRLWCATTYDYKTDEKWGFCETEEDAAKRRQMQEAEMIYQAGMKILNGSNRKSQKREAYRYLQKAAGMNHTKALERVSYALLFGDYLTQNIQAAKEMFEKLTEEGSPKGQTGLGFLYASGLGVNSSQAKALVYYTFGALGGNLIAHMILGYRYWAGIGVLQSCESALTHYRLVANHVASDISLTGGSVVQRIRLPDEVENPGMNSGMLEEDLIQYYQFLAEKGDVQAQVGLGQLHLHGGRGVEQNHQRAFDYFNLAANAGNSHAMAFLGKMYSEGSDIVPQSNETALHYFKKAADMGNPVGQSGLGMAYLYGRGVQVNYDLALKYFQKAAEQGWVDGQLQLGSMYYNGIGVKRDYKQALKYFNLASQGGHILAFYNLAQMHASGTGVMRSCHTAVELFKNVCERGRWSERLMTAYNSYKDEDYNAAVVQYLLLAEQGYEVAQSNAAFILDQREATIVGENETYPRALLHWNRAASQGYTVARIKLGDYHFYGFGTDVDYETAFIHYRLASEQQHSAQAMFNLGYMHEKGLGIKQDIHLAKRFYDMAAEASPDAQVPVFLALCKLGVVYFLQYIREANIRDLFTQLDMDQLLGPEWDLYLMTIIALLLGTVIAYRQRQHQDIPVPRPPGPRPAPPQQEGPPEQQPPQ

Take “HRD1 (mouse) (from UniProt Q9DBY1 1-612) (natural protein)”: the percent reduction of co-precipitated HRD1 against WT SEL1L in test [1] came out at 60%; in test [2] it was 80%.
